Assay results reported in patent US20190284262A1 (Memorial Sloan Kettering, published 2019).

B1: EXT017-9 scFv phage clone (scFv)
scFv: QSALTQPASASGSPGQSVTISCTGTSSDVGGYNYVSWYQQHPGKAPKLMIYEVSKRPSGVPDRFSGSKSGNTASLTVSGLQAEDEADYYCSSYAGSNNVVFGGGTKLTVLGSRGGGGSGGGGSGGGGSLEMAEVQLVQSGAEVKKPGASVKISCKASRYTFTNYYIHWVRQAPGQGLEWMGIINPSGGSTTYPQNFQGRLTMTRDTSTSTVYMELSSLRSEDTAMYYCARGWSGYDPGDFWGQGTLVTVSSTSGQAGQHHHHHHGAYPYDVPDYAS
notes: also called phage clone #9
B2: EXT017-11 scFv phage clone (scFv)
scFv: NFMLTQPHSVSESPGKTVTISCTRSSGSIASNYVQWYQQRPGSAPTTVIYEDNQRPSGVPDRFSGSIDSSSNSASLTISGLKTEDEADYYCQSYDTNNYGVIFGGGTKLTVLGSRGGGGSGGGGSGGGGSLEMAQMQLVQSGAEVKKPGASVKVSCKTSGYTFNNYYMHWVRQAPGQGLEWMGIINPSGGSTNYAQKFQGRVTMTRDTSTSTVYMELSSLRSEDTAVYYCARSFDKQDIDYWGQGTLVTVSSTSGQAGQHHHHHHGAYPYDVPDYAS
notes: also called phage clone #11
B3: (FoxP2)_#20 (scFv)
scFv (VL-linker-VH-His/HA tag): SYVLTQPPSVSVAPGKTARITCGGNNIGSKSVHWYQQKPGQAPVLVIYYDSDRPSGIPERFSGSNSGNTATLTISRVEAGDEADYYCQVWDSSSDRVVFGGGTKLTVLGSRGGGGSGGGGSGGGGSLEMAQVQLQQSGPGLVKPSQTLSLTCAISGDSISSKSAAWNWIRQSPSRGLEWLGRTYYRSKWYYEYAPSVRSRITINRDTSKNQFSLQLNSVTPEDTAVYYCARSTGTFDYWGQGTLVTVSSTSGQAGQHHHHHHGAYPYDVPDYAS
notes: also called EXT019-20 scFv phage clone
B4: (FoxP2)_#8 (scFv)
scFv (VL-linker-VH-His/HA tag): QSVLTQPPSVSEAPRQRVTISCSGSSSNIGNNAVNWYQQLPGKAPKLLIYYDDLLPSGVSDRFSGSKSGTSASLAISGLQSEDEADYYCAAWDDSLNGPVFGTGTKVTVLGSRGGGGSGGGGSGGGGSLEMAEVQLVQSGAEVKKPGASVKVSCKASGYNFTSYGISWVRQAPGQGLEWMGWISAYNGNTNYAQKLQGRVTMTTDTSTSTAYMELRSLRSDDTAVYYCARDWDYDFLTGWDGMDVWGQGTTVTVSSTSGQAGQHHHHHHGAYPYDVPDYAS
notes: also called EXT019-8; EXT019-08 scFv phage clone
B5: (FoxP2)_#4 (scFv)
scFv (VL-linker-VH-His/HA tag): QPVLTQPPSVSVAPGKTARITCGGNNIGSKSVHWYQQKPGQAPVLVIYYDSDRPSGIPERFSGSNSGNTATLTISRVEAGDEADYYCQVWDSSSDHPVFGGGTKLTVLGSRGGGGSGGGGSGGGGSLEMAQVQLVQSGAEVKKPGSSVKVSCKASGGTFSSYAISWVRQAPGQGLEWMGGIIPIFGTANYAQKFQGRVTITADESTSTAYMELSSLRSEDTAVYYCARSSYWWTSDRWGQGTLVTVSSTSGQAGQHHHHHHGAYPYDVPDYAS
notes: also called EXT019-4; EXT019-04 scFv phage clone
B6: (FoxP2)_#9 (scFv)
scFv (VL-linker-VH-His/HA tag): SYELTQPPSVSVAPGKTARITCGGNNIGSKSVHWYQQKPGQAPVLVIYYDSDRPSGIPERFSGSNSGNTATLTISRVEAGDEADYYCQVWDSSSDHWVFGGGTKLTVLGSRGGGGSGGGGSGGGGSLEMAQVQLVQSGGGLVQPGGSLKLSCAASGFAFSGSSLHWVRQASGKGLEWVGRITSKAYNYATLYAASVKGRFTISRDDSKNTAYLQMNSLQTEDTAVYYCTQTGDSSAYWGQGTLVTVSSTSGQAGQHHHHHHGAYPYDVPDYAS
notes: also called EXT019-9; EXT019-09 scFv phage clone
B7: (FoxP2)_#13 (scFv)
scFv (VL-linker-VH-His/HA tag): LPVLTQPPSVSVAPGKTARITCGGNNIGSKSVHWYQQKPGQAPVLVIYYDSDRPSGIPERFSGSNSGNTATLTISRVEAGDEADYYCQVWDSSSAYVFGTGTKVTVLGSRGGGGSGGGGSGGGGSLEMAQVQLQQSGPGLVKPSQTLSLTCAISGDSVSSNSAAWNWIRQSPSRGLEWLGRTYYRSKWYNDYAVSVKSRITINPDTSKNQFSLQLNSVTPEDTAVYYCARYYSTSLDSWGQGTLVTVSSTSGQAGQHHHHHHGAYPYDVPDYAS
notes: also called EXT019-13 scFv phage clone
B8: (FoxP2)_#6 (scFv)
scFv (VL-linker-VH-His/HA tag): QSVVTQPPSVSGAPGQGVTIPCTGSSSNIGAGYDVHWYQQLPGTAPKLLIYGNNNRPSGVPDRFSGSRSGSSASLAITGLQAEDEADYYCQSYDSSLSDVVFGGGTKLTVLGSRGGGGSGGGGSGGGGSLEMAEVQLVQSGAEVKKPGESLKISCKGSGYNFASEWIGWVRQMPGKGLEWMGLIYPAESEITYSPSFQGQVTISVDKSISTAYLQWSSLKASDTAMYYCARAWDANYIYMDIWGQGTLVTVSSTSGQAGQHHHHHHGAYPYDVPDYAS
notes: also called EXT019-6; EXT019-06 scFv phage clone
B9: (FoxP2)_#15 (scFv)
scFv (VL-linker-VH-His/HA tag): SYVLTQPPSVSVAPGETASITCGANNIGSESVHWYQQKSGQAPVLVIYYDSDRPSGIPERFSGSNSDNTATLTISRVEAGDEADYYCQVWDHINDHYVFGSGTKVTVLGSRGGGGSGGGGSGGGGSLEMAEVQLVESGGGLAQPGGSLRLSCAASGFSFSNYAMSWVRQAPGTGLEWVAGISGRGGSIHYADSVKGRFTISRDNSQSTVFLQMNNLGAEDTAIYYCAKSSEDYYFYHMDAWGIGTTVTVSSTSGQAGQHHHHHHGAYPYDVPDYAS
notes: also called EXT019-15 scFv phage clone
B10: (FoxP2)_#12 (scFv)
scFv (VL-linker-VH-His/HA tag): SYELTQPPSVSVAPGKTARITCGGNNIGSKSVHWYQQKPGQAPVLVIYYDSDRPSGIPERFSGSNSGNTATLTISRVEAGDEADYYCQVWDSSSDHRVFGGGTKVTVLGSRGGGGSGGGGSGGGGSLEMAEVQLVESGGGLVQPGGSLRLSCAASGFTFSSYWMNWVRQAPGKGLEWVANIKQDGSEKNYVDSVKGRFTISRDNAKNSLYLQMNSLRGEDTAVYYCARYGGGPYDSWGQGTLVTVSSTSGQAGQHHHHHHGAYPYDVPDYAS
notes: also called EXT019-12 scFv phage clone
B11: EXT017-26 scFv phage clone (scFv)
scFv: SYVLTQPPSVSVAPGQTARITCGGTDIRRKTVHWYQQKPGLAPVLVLYDDSDRPSGIPERFSGSNSGNTATLTISRVEGGDEADYYCQVWDNDNDHYVFGPGTKVTVLGSRGGGGSGGGGSGGGGSLEMAEVQLVQSGAEVKKPGASVKVSCKASGYTFTNYYIHWVRQTPGEGLEWMGIIRPSGGNTNYAQKFQGRVTMTRDTSTRTVYMELSSLRSEDTAVYYCARSWDTFSDEWGQGTLVTVSSTSGQAGQHHHHHHGAYPYDVPDYAS
notes: also called phage clone #26
B12: #30 (scFv)
scFv: SYVLTQPPSVSVAPGQTARMTCEGSNLGSKSVHWYQQKPGQAPVLVVHDDSDRPSGIPDRFSGSKSGNTATLTISRVEAGDEADYYCQVWHSSSDHYVFGTATKVTVLGSRGGGGSGGGGSGGGGSLEMAQVQLVQSGAEVKKPGASVKVSCKASGYTFTNYYIHWVRQAPGQGLEWMGIIRPSGGITNYAQKFQGRVSMTRDTSTSTVYMELSSLRSEDTAVYYCARSWHENSGVDSWGQGTLVTVSSTSGQAGQHHHHHHGAYPYDVPDYAS
notes: also called EXT017-30; EXT017-30 scFv phage clone

These binders were tested against T1, Foxp3-7 peptide/HLA-A*02:01 complex on the cell surface (human) (assay: flow cytometry, phage on T2 + Foxp3-7 peptide; secondary only 133, unstained 103).
T1 construct: also called Foxp3-7/HLA-A2 complex

| Binder | Median:FITC-A |
| --- | --- |
| B1 | 1730 |
| B2 | 1690 |

The binders below were run against T2, R3 (RHAMM-R3) peptide/HLA-A*02:01 complex on T2 cells (human) (assay: flow cytometry, phage on T2 + R3 peptide; secondary only 126, unstained 94.4).
T2 construct: Control target of the phage staining of T2 cells; also called T2 cells pulsed with R3 peptide; RHAMM 3 (R3)

| Binder | Median:FITC-A |
| --- | --- |
| B3 | 148 |
| B4 | 142 |
| B5 | 145 |
| B6 | 148 |
| B7 | 141 |
| B8 | 157 |
| B9 | 145 |
| B10 | 151 |

These binders were tested against T3, HLA-A*02:01 on T2 cells alone (no peptide added) (human) (assay: flow cytometry, phage on T2 without peptide; secondary only 118, unstained 95.2).
T3 construct: TAP-deficient T2 cells without pulsed peptide; negative control target, and the HLA molecule whose stabilisation by peptides is read in the T2 stabilization assay; also called HLA-A*02 molecule; HLA-A2 molecule

| Binder | Median:FITC-A |
| --- | --- |
| B3 | 149 |
| B4 | 141 |
| B5 | 147 |
| B6 | 140 |
| B7 | 143 |
| B8 | 146 |
| B9 | 145 |
| B10 | 151 |

These binders were tested against T1, Foxp3-7 peptide/HLA-A*02:01 complex on … (assay: flow cytometry, phage on T2 + Foxp3-7 peptide; secondary only 318, unstained 95.8).

| Binder | Median:FITC-A |
| --- | --- |
| B11 | 1880 |
| B12 | 1130 |

These binders were tested against T4, T2+EW (Homo sapiens, UniProt A*02:01) (assay: flow cytometry, phage on T2 + EW peptide; secondary only 310, unstained 93).
T4 construct: on the surface of T2 cells; irrelevant control peptide; also called EW peptide/HLA-A*02:01 complex on T2 cells; T2 pulsed with EW peptide

| Binder | Median:FITC-A |
| --- | --- |
| B11 | 375 |
| B12 | 378 |

What follows are binders tested against T1, Foxp3-7 peptide/HLA-A*02:01 complex on … (assay: flow cytometry, phage on T2 + Foxp3-7 peptide; secondary only 116, unstained 93.8).

| Binder | Median:FITC-A |
| --- | --- |
| B1 | 287 |
| B2 | 454 |
| B11 | 410 |

What follows are binders tested against T2, R3 (RHAMM-R3) peptide/HLA-A*02:01 … (assay: flow cytometry, phage on T2 + R3 peptide; secondary only 123, unstained 99.8).

| Binder | Median:FITC-A |
| --- | --- |
| B1 | 144 |
| B2 | 144 |
| B11 | 144 |

What follows are binders tested against T3, HLA-A*02:01 on T2 cells alone (no …) (assay: flow cytometry, phage on T2 cells).

| Binder | binding result |
| --- | --- |
| B1 | no binding |
| B2 | no binding |
| B11 | no binding |

The binders below were run against T3, HLA-A*02:01 on T2 cells alone (no …) (assay: flow cytometry, phage on T2 without peptide; secondary only 320, unstained 91.4).

| Binder | Median:FITC-A |
| --- | --- |
| B11 | 385 |
| B12 | 354 |

Each binder was assayed against T4, T2+EW (assay: flow cytometry, phage on T2 + EW peptide; secondary only 113, unstained 94.7).

| Binder | Median:FITC-A |
| --- | --- |
| B1 | 151 |
| B2 | 143 |

Each binder was assayed against T3, HLA-A*02:01 on T2 cells alone (no …) (assay: flow cytometry, phage on T2 without peptide; secondary only 100, unstained 99.5).

| Binder | Median:FITC-A |
| --- | --- |
| B1 | 149 |
| B2 | 142 |

These binders were tested against T2, R3 (RHAMM-R3) peptide/HLA-A*02:01 … (assay: flow cytometry, phage on T2 + R3 peptide (as the table names the samples); secondary only 109, unstained 80.9).

| Binder | Median:FITC-A |
| --- | --- |
| B2 | 119 |

These binders were tested against T3, HLA-A*02:01 on T2 cells alone (no …) (assay: flow cytometry, phage on T2 without peptide; secondary only 121, unstained 106).

| Binder | Median:FITC-A |
| --- | --- |
| B1 | 150 |
| B2 | 143 |
| B11 | 146 |

These binders were tested against T1, Foxp3-7 peptide/HLA-A*02:01 complex on … (assay: flow cytometry, phage on T2 + Foxp3-7 peptide; secondary only 104, unstained 81.7).

| Binder | Median:FITC-A |
| --- | --- |
| B2 | 2620 |

What follows are binders tested against T3, HLA-A*02:01 on T2 cells alone (no …) (assay: flow cytometry, phage on T2 without peptide).

| Binder | binding result |
| --- | --- |
| B3 | no binding |
| B4 | no binding |
| B5 | no binding |
| B6 | no binding |
| B7 | no binding |
| B8 | no binding |
| B9 | no binding |
| B10 | no binding |
